Target: T1, MLO-Y4 cell surface proteins (Mus musculus, UniProt P59242)
T1 construct: endogenous in cells; host or cells: MLO-Y4
T1 sequence (P59242 1-1191): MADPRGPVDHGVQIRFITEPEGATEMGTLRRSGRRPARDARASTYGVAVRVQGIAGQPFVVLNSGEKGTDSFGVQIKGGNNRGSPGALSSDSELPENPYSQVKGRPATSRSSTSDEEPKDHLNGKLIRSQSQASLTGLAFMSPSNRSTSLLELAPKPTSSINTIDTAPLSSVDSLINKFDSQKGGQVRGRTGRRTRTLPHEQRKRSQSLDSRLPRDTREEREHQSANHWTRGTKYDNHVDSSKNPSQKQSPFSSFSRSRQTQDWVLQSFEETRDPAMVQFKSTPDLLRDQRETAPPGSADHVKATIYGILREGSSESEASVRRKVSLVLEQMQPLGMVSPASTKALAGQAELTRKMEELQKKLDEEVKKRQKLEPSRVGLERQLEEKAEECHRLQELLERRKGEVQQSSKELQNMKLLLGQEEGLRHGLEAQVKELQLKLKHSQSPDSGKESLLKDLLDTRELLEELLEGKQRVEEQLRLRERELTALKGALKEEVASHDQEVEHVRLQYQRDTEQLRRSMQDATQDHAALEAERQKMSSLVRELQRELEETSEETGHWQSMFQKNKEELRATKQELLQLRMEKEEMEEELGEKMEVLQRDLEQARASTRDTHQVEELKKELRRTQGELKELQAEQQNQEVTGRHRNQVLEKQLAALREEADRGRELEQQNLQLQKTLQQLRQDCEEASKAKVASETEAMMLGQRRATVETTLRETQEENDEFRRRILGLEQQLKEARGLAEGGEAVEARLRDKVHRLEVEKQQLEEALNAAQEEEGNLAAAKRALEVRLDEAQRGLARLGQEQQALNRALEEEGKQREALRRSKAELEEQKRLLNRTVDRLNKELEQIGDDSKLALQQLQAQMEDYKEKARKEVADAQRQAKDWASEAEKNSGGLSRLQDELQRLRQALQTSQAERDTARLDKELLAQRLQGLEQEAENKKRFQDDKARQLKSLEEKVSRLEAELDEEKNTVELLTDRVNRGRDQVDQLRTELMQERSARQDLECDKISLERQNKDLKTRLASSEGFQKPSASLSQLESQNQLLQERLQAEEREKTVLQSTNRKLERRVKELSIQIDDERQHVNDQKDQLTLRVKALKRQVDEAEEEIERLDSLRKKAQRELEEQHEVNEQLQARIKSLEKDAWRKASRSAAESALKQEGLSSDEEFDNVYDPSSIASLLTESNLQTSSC
Assay: Crosslinking/co-immunoprecipitation/mass spectrometry (TMT quantitative proteomics) to identify irisin receptors
Assay type: binding
Conditions: co-precipitated protein Cgn (CING_MOUSE)
Outline: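 Mouse MLO-Y4 cells were switched to serum-free FreeStyle medium for 4 h, chilled, then exposed to 10 nM His-tagged irisin (or adipsin as control) for 20 min. Cells were crosslinked with 1.5 mM DTSSP (30 min, ice), and bound proteins were pulled down on Ni-NTA and eluted with 250 mM imidazole. Eluates were separated by SDS-PAGE, trypsin-digested in gel, TMT 6-plex labelled and quantified by MS3-based LC-MS/MS on an Orbitrap Fusion Lumos.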

Q: Which TMT signal-to-noise ratio does the source give for adipsin here?
A: Its TMT signal-to-noise ratio is 200.289.

From US20210063414A1, “METHODS FOR PREVENTING AND/OR TREATING BONE LOSS CONDITIONS BY MODULATING IRISIN” (Dana-Farber Cancer Institute, Inc., priority 2018, published 2021)
